The text below walks through data of patent US20200256849A1.

Bounds are passed on as bounds.

Test [1] deals with MART1 comPACT (UniProt P61769). Nature of the test: dual staining with tetramer, trimer+DNA, dextramer and dextramer+DNA, FACS.
Test [2] addresses MART1 comPACT (UniProt P61769). The test can be described thus: PE/APC comPACT tetramer dual staining, FACS.
The target in test [3] is MART1 comPACT (UniProt P61769). Nature of the test: replicate of PE/APC comPACT tetramer dual staining, FACS.

UniProt P61769, sequence (P61769 21-119): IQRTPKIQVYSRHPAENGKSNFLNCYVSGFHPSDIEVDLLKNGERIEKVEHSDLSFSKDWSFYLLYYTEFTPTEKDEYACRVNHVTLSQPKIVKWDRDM

As for TCR against a MART1 antigen (F5), the % of gene edited cells stained with MART1 comPACT [1] is more than 98%. In addition, the tetramer staining (% of T cells) in the test with MART1 comPACT [2] and with MART1 comPACT [3] was more than 99% in each case.
